Target: the molecule itself
Assay: SEC

B1: GroEL-P (His6-GroEL of B. anthracis co-expressed with PrkCc in E. coli, phosphorylated) (natural protein)
chain: MAKDIKFSEEARRSMLRGVDTLANAVKVTLGPKGRNVVLEKKFGSPLITNDGVTIAKEIELEDAFENMGAKLVAEVASKTNDVAGDGTTTATVLAQAMIREGLKNVTAGANPMGLRKGIEKAVVAAVEELKTISKPIEGKSSIAQVAAISAADEEVGQLIAEAMERVGNDGVITLEESKGFTTELDVVEGMQFDRGYASPYMITDSDKMEAVLDNPYILITDKKISNIQEILPVLEQVVQQGKPLLIIAEDVEGEALATLVVNKLRGTFNVVAVKAPGFGDRRKAMLEDIAILTGGEVITEELGRDLKSATVESLGRAGKVVVTKENTTVVEGVGSTEQIEARIGQIRAQLEETTSEFDREKLQERLAKLVGGVAVIKVGAATETELKERKLRIEDALNSTRAAVEEGIVAGGGTSLMNVYTKVASIVAEGDEATGINIVLRALEEPVRQIAINAGLEGSVVVERLKGEKVGVGFNAATGEWVNMLETGIVDPAKVTRSALQNAASVAAMFLTTEAVVADKPEPNAPAMPDMGGMGMGGMGGMM
Question: B1 was tested. Which “stoichiometry N” value did it give?
Answer: The value was 14.
